Measurements from the supplement of paper PMC7877785.
± gives the uncertainty stated by the source.

Assay: self-splicing fitness, log relative to wild type (ln ratio); higher = more splicing; Tetrahymena group I intron in knt gene, E. coli kanamycin selection, DiMSum; sequences stand for … in CUCUCU…GGAGGGAAAAGUUAUCAGGCAUGCACCUGGUAGCUAGUCUUUAAACCAAUAGAUUGCAUCGGUUUAAAAGGCAAGACCGUCAAAUUGCGGGAAAGGGGUCAACAGCCGUUCAGUACCAAGUCUCAGGGGAAACUUUGAGAUGGCCUUGCAAAGGGUAUGGUAAUAAGCUGACGGACAUGGUCCUAACCACGCAGCCAAGUCCUAAGUCAACAGAUCUUCUGUUGAUAUGGAUGCAGUUCACAGACUAAAUGUCGGUCGGGGAAGAUGUAUUCUUCUCAUAAGAUAUAGUCGGACCUCUCCUUAAUGGGAGCUAGCGGAUGAAGUGAUGCAACACUGGAGCCGCUGGGAACUAAUUUGUAUGCGAAAGUAUAUUGAUUAGUUUUGGAGUACUCGUGGUCG
Outline: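 Library with all eight P1ex-region intron nucleotides randomised, intron inside the knt kanamycin-resistance gene on pET-22b(+), in E. coli BL21(DE3). Cells grew overnight at 37°C or 30°C on LB agar with or without 25 μg/mL kanamycin (plus 100 μg/mL carbenicillin, 50 μM IPTG, 0.2% rhamnose), in six replicate transformations. Pooled colonies were amplicon-sequenced on Illumina HiSeq 2500. DiMSum fitness is the error-weighted combination of wild-type-normalised replicate fold changes, kanamycin versus none.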

| Sequence | self-splicing fitness (ln) (30 °C) | self-splicing fitness (ln) (37 °C) |
| --- | --- | --- |
| ACAAAGCAAUAUUACGGCCG | -0.257 ± 0.09 | 0.0921 ± 0.14 |
| ACAAAGCAAUAUUACGGCCU | -0.338 ± 0.071 | 0.0409 ± 0.1 |
| ACAAAGCAAUAUUACGGCGG | -0.226 ± 0.08 | -0.154 ± 0.092 |
| ACAAAGCAAUAUUACGGGAU | -1.19 ± 0.058 | -0.492 ± 0.076 |
| ACAAAGCAAUAUUACGGGGG | -2.81 ± 0.13 | -2.19 ± 0.16 |
| ACAAAGCAAUAUUACGGGGU | -3.15 ± 0.16 | -2.59 ± 0.18 |
| ACAAAGCAAUAUUACGUAAG | -1.19 ± 0.056 | -0.79 ± 0.069 |
| ACAAAGCAAUAUUACGUAGA | -3.68 ± 0.16 | -1.66 ± 0.15 |
| ACAAAGCAAUAUUACGUCCG | -0.802 ± 0.049 | -0.466 ± 0.063 |
| ACAAAGCAAUAUUACGUUGC | -3.26 ± 0.12 | -2.57 ± 0.16 |
| ACAAAGCAAUAUUACGUUUC | -4.84 ± 0.24 | -2.49 ± 0.16 |
| ACAAAGCAAUAUUACGUUUU | -3.53 ± 0.14 | -2.95 ± 0.16 |
| ACACAGCAAUAUUACGAACG | -0.869 ± 0.048 | -0.185 ± 0.068 |
| ACACAGCAAUAUUACGAAUU | -3.01 ± 0.084 | -2.02 ± 0.1 |
| ACACAGCAAUAUUACGAGCU | -0.901 ± 0.077 | -0.406 ± 0.085 |
| ACACAGCAAUAUUACGCACC | -0.476 ± 0.09 | -0.151 ± 0.11 |
| ACACAGCAAUAUUACGCAGG | -2.43 ± 0.093 | -1.82 ± 0.1 |
| ACACAGCAAUAUUACGGAAC | -4.07 ± 0.17 | -2.49 ± 0.14 |
| ACACAGCAAUAUUACGGAUU | -2.18 ± 0.096 | -1.45 ± 0.12 |
| ACACAGCAAUAUUACGGCGG | -0.95 ± 0.069 | -0.0948 ± 0.088 |
| ACACAGCAAUAUUACGGGAG | -2.04 ± 0.073 | -2.15 ± 0.084 |
| ACACAGCAAUAUUACGGGGU | -3.14 ± 0.11 | -1.42 ± 0.087 |
| ACACAGCAAUAUUACGGGUA | -2.3 ± 0.098 | -1.26 ± 0.074 |
| ACACAGCAAUAUUACGGUAU | -2.59 ± 0.088 | -1.59 ± 0.092 |
| ACACAGCAAUAUUACGGUCU | -0.341 ± 0.05 | 0.298 ± 0.067 |
| ACACAGCAAUAUUACGUAGC | -3.75 ± 0.14 | -2.11 ± 0.12 |

| Sequence | self-splicing fitness (ln) (30 °C) | self-splicing fitness (ln) (37 °C) |
| --- | --- | --- |
| ACACAGCAAUAUUACGUCCU | -0.17 ± 0.055 | 0.432 ± 0.075 |
| ACACAGCAAUAUUACGUCUA | -1.27 ± 0.072 | -0.282 ± 0.072 |
| ACACAGCAAUAUUACGUGAU | -2.14 ± 0.062 | -1.34 ± 0.086 |
| ACACAGCAAUAUUACGUGGG | -3.5 ± 0.098 | -1.88 ± 0.087 |
| ACACAGCAAUAUUACGUGUA | -3.54 ± 0.11 | -2.06 ± 0.085 |
| ACACAGCAAUAUUACGUGUC | -3.6 ± 0.12 | -3.69 ± 0.2 |
| ACAGAGCAAUAUUACGAAUU | -4.27 ± 0.33 | -1.57 ± 0.2 |
| ACAGAGCAAUAUUACGACAU | -3.246 ± 0.021 | -2.17 ± 0.036 |
| ACAGAGCAAUAUUACGACCA | -0.827 ± 0.21 |  |
| ACAGAGCAAUAUUACGACGU | -1.31 ± 0.091 | -0.557 ± 0.11 |
| ACAGAGCAAUAUUACGAGAU | -3.23 ± 0.19 | -2.55 ± 0.23 |
| ACAGAGCAAUAUUACGAUCU | -1.68 ± 0.22 |  |
| ACAGAGCAAUAUUACGCAAA | -2.6 ± 0.34 | -1.42 ± 0.28 |
| ACAGAGCAAUAUUACGCAAG | -3.99 ± 0.39 | -2.33 ± 0.25 |
| ACAGAGCAAUAUUACGCCCU | -3.23 ± 0.23 | -2.02 ± 0.3 |
| ACAGAGCAAUAUUACGCUGU | -3.87 ± 0.42 | -2.69 ± 0.29 |
| ACAGAGCAAUAUUACGGAAG | -3.52 ± 0.22 | -2.12 ± 0.22 |
| ACAGAGCAAUAUUACGGACG | -3.09 ± 0.17 | -0.53 ± 0.33 |
| ACAGAGCAAUAUUACGGAUA | -3.19 ± 0.45 |  |
| ACAGAGCAAUAUUACGGCCA | -3.47 ± 0.19 | -2.29 ± 0.17 |
| ACAGAGCAAUAUUACGUAAG | -2.36 ± 0.11 | -1.73 ± 0.14 |
| ACAGAGCAAUAUUACGUACU | -2.96 ± 0.27 | -2.14 ± 0.21 |
| ACAGAGCAAUAUUACGUCUG | -2.35 ± 0.18 | -1.03 ± 0.21 |
| ACAUAGCAAUAUUACGACUC | -0.657 ± 0.086 | -0.29 ± 0.13 |
| ACAUAGCAAUAUUACGAUCA | -1.71 ± 0.087 | -0.779 ± 0.098 |
| ACAUAGCAAUAUUACGAUGU | -3.82 ± 0.16 | -2.19 ± 0.16 |

| Sequence | self-splicing fitness (ln) (30 °C) | self-splicing fitness (ln) (37 °C) |
| --- | --- | --- |
| ACAUAGCAAUAUUACGCAGA | -2.47 ± 0.14 | -1.74 ± 0.14 |
| ACAUAGCAAUAUUACGCCAA |  | -2.32 ± 0.28 |
| ACAUAGCAAUAUUACGCUCC | -1.62 ± 0.17 | -2.05 ± 0.23 |
| ACAUAGCAAUAUUACGGAAG | -3.57 ± 0.15 | -3.04 ± 0.22 |
| ACAUAGCAAUAUUACGUCCU | -0.372 ± 0.11 | -0.297 ± 0.12 |
| ACAUAGCAAUAUUACGUGAA | -2.13 ± 0.093 | -1.18 ± 0.1 |
| ACAUAGCAAUAUUACGUGGA | -3.3 ± 0.23 | -2.37 ± 0.14 |
| ACAUAGCAAUAUUACGUGUA | -2.68 ± 0.21 | -2.11 ± 0.22 |
| ACAUAGCAAUAUUACGUGUU | -4.04 ± 0.17 | -2.87 ± 0.14 |
| ACCAAGCAAUAUUACGAAGA | -4.11 ± 0.24 | -1.56 ± 0.14 |
| ACCAAGCAAUAUUACGAAGC | -3.94 ± 0.23 | -0.918 ± 0.15 |
| ACCAAGCAAUAUUACGACAG | -1.81 ± 0.078 | -1.82 ± 0.11 |
| ACCAAGCAAUAUUACGACCU | -0.493 ± 0.074 | -0.169 ± 0.087 |
| ACCAAGCAAUAUUACGAGAU | -3.84 ± 0.13 | -2.65 ± 0.16 |
| ACCAAGCAAUAUUACGAGCG | -0.886 ± 0.062 | -1.31 ± 0.081 |
| ACCAAGCAAUAUUACGCCAG | -2.75 ± 0.16 | -1.42 ± 0.18 |
| ACCAAGCAAUAUUACGCUCG | -2.2 ± 0.12 | -1.32 ± 0.13 |
| ACCAAGCAAUAUUACGCUGU | -1.61 ± 0.067 | -0.313 ± 0.074 |
| ACCAAGCAAUAUUACGGAAG | -3.74 ± 0.17 | -3.14 ± 0.19 |
| ACCAAGCAAUAUUACGGAGU | -3.6 ± 0.098 | -2.25 ± 0.12 |
| ACCAAGCAAUAUUACGGCCC | -0.856 ± 0.11 | 0.112 ± 0.16 |
| ACCAAGCAAUAUUACGGCUC | -2.09 ± 0.07 | -0.63 ± 0.084 |
| ACCAAGCAAUAUUACGGGAC | -4.08 ± 0.14 | -2.05 ± 0.12 |
| ACCAAGCAAUAUUACGUAUG | -3.59 ± 0.13 | -2.53 ± 0.12 |
| ACCAAGCAAUAUUACGUCCC | -2.14 ± 0.12 | -0.924 ± 0.17 |
